Test results from patent publication US20170095417A1, “Percutaneous Implement and Method for Manufacturing” (priority 2015, published 2017).
One block for each compound: values may come before it.

Key:
rat = assay: Micro payload injected in rat, hypotension and dye distribution (Example 5); type: in vivo; settings: half-shell Maltose cone mixed 1 mg Alprostadil, indicates vasodilation
Method: A sample of micro payload integrated a 1 mm length conic micro-head with drug and 2 mm length micro-stem without drug was injected in rat.

skin [1] = settings: in vivo
skin [2] = settings: rat, in vivo
Excerpt: (§1) Quadrangular pyramidal micro-head of 0.7 mm length and 0.1 mm bottom side length was contained anhydrous and amorphous oblate spheroidal Maltose chip of 0.02 mm length and 0.01 mm diameter. The chip was made from mixing material of 50% Maltose and 50% Hyaluronic acid included 30% albumen which was non-heat resistance limited in 70 degree centigrade. Three micro-heads were installed in three lengths of micro implements of 1 mm, 2 mm, and 3 mm.

[3] = type: physicochemical
Excerpt: as §1

Compound: CCCCC[C@H](O)/C=C/[C@H]1[C@H](O)CC(=O)[C@@H]1CCCCCCC(=O)O [Alprostadil]
hypotension (rat): 20 mmHg

transfer of chip into skin (skin [1]): completely transferred into skin
Compound: Hyaluronic acid

Compound: albumin
aggregation depths versus implement length (skin [2]): corresponded to the three length respectively
deposition in skin (skin [2]): albumin aggregation in skin
heat stability in forming process [3]: resisted temperature of the micro implement forming process
